Assay results published in publication PMC4320098, “Identification and Characterization of a Novel Phosphodiesterase from the Metagenome of an Indian Coalbed” (PLoS ONE, 2015).

Key:
[1] = tested on: O=[N+]([O-])c1ccc(OP(=O)(O)Oc2ccc([N+](=O)[O-])cc2)cc1; assay: purified protein; format: biochemical, uncultured organism; conditions: pH 8.5; 25.0 °C
[2] = molecular target: PdeM (uncultured organism, UniProt S5THN5); assay: p-nitrophenol release, absorbance […] nm, Michaelis-Menten non-linear fit; format: biochemical; conditions: 2 mM MnCl2, 50 mM Tris-HCl pH 8.5, 5 mM beta-ME, 10 mM NaCl, 25 °C, 30 min
Sequence of PdeM (S5THN5 entry or part of it): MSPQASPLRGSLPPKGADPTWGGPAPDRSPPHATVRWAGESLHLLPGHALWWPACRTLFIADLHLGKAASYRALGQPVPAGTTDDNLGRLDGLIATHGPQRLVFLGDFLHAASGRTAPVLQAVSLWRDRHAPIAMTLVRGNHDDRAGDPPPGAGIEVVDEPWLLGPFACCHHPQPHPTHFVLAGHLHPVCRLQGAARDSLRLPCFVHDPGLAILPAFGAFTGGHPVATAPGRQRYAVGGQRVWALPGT

| Compound | Km [1] | Km [2] |
| --- | --- | --- |
| PdeM (uncultured organism) | 10.21 ± 1.6 mM | – |
| O=[N+]([O-])c1ccc(OP(=O)(O)c2ccccc2)cc1 [pNPPP] | – | 7.2 ± 1.4 mM |
